These results are taken from article PMC4275181, “Evolution of RNA-Protein Interactions: Non-Specific Binding Led to RNA Splicing Activity of Fungal Mitochondrial Tyrosyl-tRNA Synthetases” (PLoS Biology, 2014).

This data set concerns the molecule itself. In words: SAXS; molecular weight from forward scattering I(0) against a bovine serum albumin standard; free protein at at least three concentrations in 100 mM KCl, 5 mM MgCl2, 10 mM Tris-HCl (pH 7.5), 5% glycerol.

B1: CYT-18* (Neurospora crassa mitochondrial tyrosyl-tRNA synthetase lacking the mitochondrial targeting sequence and most of the C-tail) (enzyme)
chain: MLRREFGPKYTAKINEAEENWQARAEAIKKGKKQNTWDLFEERGYVKDTAGTKEHIAELMRTRRIGAYVGIDPTAPSLHVGHLLPLMPLFWMYLEGYKAFTLIGGSTAKIGDPTGRLKSRDHLSSSDATMNMTKIHYQLKKLWENVDTQMRARGYEADWARKRGIVNNNHWWNKQPMLEVLRRVGHALRIGPMLSRDTVKNKMTQGDGVSFAEFTYPIMQGWDWFELFYQQGVQMQIGGSDQYGNIISGLEVVKAARESEPDPQERKYVTPKTALDECVGFTVPLLTDSSGAKFGKSAGNAIWLDPYQTSVFDFYGYFVRRSDQEVENLLKLFTFMPISEITKTMEEHIKDPSKRVAQHTLAREVVTLVHGKQEASAAEDQHRMMYTGQMTIPQVSRAKDAATGGDQYKTISDQPVTLNNAPRIDMILPESLIMGKSIGRILYAAGLASSTTEGHKLAAAQGCYVGGAHRAGGENVTMNPDLISFMPVKLWFPGETQRYLINGNLLILRKGKHNVRVIQMVSDVEYAASGQTYPGQSFTGAVRKLNEIMKNL
notes: extra N-terminal methionine of the expression construct; stop codons introduced after Leu583; Derived from pEX560 (wild-type CYT-18, amino acids 33-669); also called CYT18/ΔC-tail; N. crassa mtTyrRS
For the protein B1, the stoichiometry N (as a rule, a count of units in the complex or per binding partner) was determined as 2.
